Test results: the Immune Epitope Database (IEDB)
Blank lines part the entries; values can stand above or below the sequence they belong to.

Legend:
HLA-B*14:02 = assay: IEDB peptide-MHC binding, purified MHC/direct/fluorescence; filed as Kd, often an IC50 or EC50 that approximates it; ≥ and ≤ were set here for values at or beyond the usual limits of such assays; details: source organism: Homo sapiens
HLA-C*05:01 = assay: as above; details: source organism: Entamoeba histolytica HM-1:IMSS
HLA-A*32:15 = assay: IEDB peptide-MHC binding, purified MHC/competitive/fluorescence; filed as Kd, often an IC50 or EC50 that approximates it; ≥ and ≤ were set here for values at or beyond the usual limits of such assays; details: source organism: Entamoeba histolytica HM-1:IMSS
HLA-A*68:23 = assay: as above; details: source organism: Entamoeba histolytica HM-1:IMSS
HLA-B*15:42 = assay: as above; details: source organism: Entamoeba histolytica HM-1:IMSS
HLA-B*40:13 = assay: as above; details: source organism: Entamoeba histolytica HM-1:IMSS
HLA-B*45:06 = assay: as above; details: source organism: Entamoeba histolytica HM-1:IMSS
HLA-B*51:01 = assay: as above; details: source organism: Entamoeba histolytica HM-1:IMSS
HLA-B*83:01 = assay: as above; details: source organism: Entamoeba histolytica HM-1:IMSS
HLA-A*01:01 = assay: as above; details: source organism: Escherichia coli str. K-12 substr. DH10B
HLA-A*02:01 [1] = assay: as above; details: source organism: Escherichia coli str. K-12 substr. DH10B
HLA-A*02:03 = assay: as above; details: source organism: Escherichia coli str. K-12 substr. DH10B
HLA-A*02:12 = assay: as above
HLA-A*03:01 = assay: as above; details: source organism: Escherichia coli str. K-12 substr. DH10B
HLA-A*11:01 = assay: as above; details: source organism: Escherichia coli str. K-12 substr. DH10B
HLA-A*26:02 = assay: as above; details: source organism: Escherichia coli str. K-12 substr. DH10B
HLA-A*30:01 = assay: as above; details: source organism: Escherichia coli str. K-12 substr. DH10B
HLA-A*31:01 = assay: as above; details: source organism: Escherichia coli str. K-12 substr. DH10B
HLA-B*07:02 = assay: as above; details: source organism: Escherichia coli str. K-12 substr. DH10B
HLA-B*08:02 = assay: as above; details: source organism: Escherichia coli str. K-12 substr. DH10B
HLA-B*08:03 = assay: as above; details: source organism: Escherichia coli str. K-12 substr. DH10B
HLA-B*15:01 = assay: as above; details: source organism: Escherichia coli str. K-12 substr. DH10B
HLA-B*18:01 = assay: as above; details: source organism: Escherichia coli str. K-12 substr. DH10B
HLA-B*27:05 = assay: as above; details: source organism: Escherichia coli str. K-12 substr. DH10B
HLA-B*35:01 = assay: as above; details: source organism: Escherichia coli str. K-12 substr. DH10B
HLA-B*40:01 = assay: as above; details: source organism: Escherichia coli str. K-12 substr. DH10B
HLA-B*46:01 = assay: as above
HLA-B*48:01 = assay: as above; details: source organism: Escherichia coli str. K-12 substr. DH10B
HLA-B*58:01 [2] = assay: as above; details: source organism: Escherichia coli str. K-12 substr. DH10B
HLA-C*15:02 = assay: IEDB peptide-MHC binding, purified MHC/direct/fluorescence; filed as Kd, often an IC50 or EC50 that approximates it; ≥ and ≤ were set here for values at or beyond the usual limits of such assays; details: source organism: Burkholderia mallei NCTC 10229
HLA-A*02:19 = assay: IEDB peptide-MHC binding, purified MHC/competitive/fluorescence; filed as Kd, often an IC50 or EC50 that approximates it; ≥ and ≤ were set here for values at or beyond the usual limits of such assays; details: source organism: Burkholderia mallei NCTC 10229
HLA-A*26:01 = assay: as above; details: source organism: Burkholderia mallei NCTC 10229
HLA-A*29:02 [3] = assay: as above; details: source organism: Burkholderia mallei NCTC 10229
HLA-A*80:01 = assay: as above; details: source organism: Burkholderia mallei NCTC 10229
HLA-B*39:01 = assay: as above; details: source organism: Burkholderia mallei NCTC 10229
HLA-B*15:02 = assay: as above; details: source organism: Homo sapiens
HLA-A*02:01 [4] = assay: IEDB peptide-MHC binding, purified MHC/competitive/radioactivity; filed as Kd, often an IC50 or EC50 that approximates it; ≥ and ≤ were set here for values at or beyond the usual limits of such assays; details: source organism: Homo sapiens
HLA-A*02:07 = assay: as above; details: source organism: Homo sapiens
HLA-A*29:02 [5] = assay: as above; details: source organism: Homo sapiens
HLA-B*57:01 = assay: as above; details: source organism: Homo sapiens
HLA-B*58:01 [6] = assay: as above; details: source organism: Homo sapiens
[7] = source organism: Escherichia coli str. K-12 substr. DH10B

Sequence: MPYHGYHII
Kd (HLA-C*05:01): ≥ 20000 nM
Kd (HLA-A*32:15): 134 nM
Kd (HLA-A*68:23): 95 nM
Kd (HLA-B*15:42): ≥ 5000 nM
Kd (HLA-B*40:13): 44.1 nM
Kd (HLA-B*45:06): ≥ 5000 nM
Kd (HLA-B*51:01): 91 nM
Kd (HLA-B*83:01): 36.9 nM

Sequence: QVIFKCVPK
Kd (HLA-A*01:01): 1040 nM
Kd (HLA-A*02:01 [1]): 367 nM
Kd (HLA-A*02:03): ≥ 20000 nM
Kd (HLA-A*02:12; [7]): 68.6 nM
Kd (HLA-A*03:01): 1070 nM
Kd (HLA-A*11:01): 190 nM
Kd (HLA-A*26:02): ≥ 20000 nM
Kd (HLA-A*30:01): 75.3 nM
Kd (HLA-A*31:01): 4770 nM
Kd (HLA-B*07:02): ≥ 20000 nM
Kd (HLA-B*08:02): ≥ 20000 nM
Kd (HLA-B*08:03): ≥ 20000 nM
Kd (HLA-B*15:01): ≥ 20000 nM
Kd (HLA-B*18:01): ≥ 20000 nM
Kd (HLA-B*27:05): ≥ 20000 nM
Kd (HLA-B*35:01): ≥ 20000 nM
Kd (HLA-B*40:01): ≥ 20000 nM
Kd (HLA-B*46:01; [7]): ≥ 20000 nM
Kd (HLA-B*48:01): ≥ 20000 nM
Kd (HLA-B*58:01 [2]): 2260 nM

Sequence: RTFGQPLFF
Kd (HLA-C*15:02): 5 nM
Kd (HLA-A*02:12; source organism: Burkholderia mallei NCTC 10229): ≥ 20000 nM
Kd (HLA-A*02:19): ≥ 20000 nM
Kd (HLA-A*26:01): ≥ 20000 nM
Kd (HLA-A*29:02 [3]): 0.2 nM
Kd (HLA-A*80:01): 413 nM
Kd (HLA-B*39:01): ≥ 20000 nM

Continued, values first:

Kd (HLA-B*14:02): 163 nM
Sequence: DELNHASI

Kd (HLA-B*15:02): 13.8 nM
Kd (HLA-B*46:01; source organism: Homo sapiens): 51.5 nM
Kd (HLA-A*02:01 [4]): ≥ 78100 nM
Kd (HLA-A*02:07): ≥ 60000 nM
Kd (HLA-A*29:02 [5]): 2870 nM
Kd (HLA-B*57:01): ≥ 45600 nM
Kd (HLA-B*58:01 [6]): ≥ 48300 nM
Sequence: SIRDGVRAY
